Measured values taken from patent publication US7026443.

Tests used:
[1] = target: HLA-A*0201 (human); assay: competition with 125I-labelled standard peptide for purified HLA-A*0201, gel filtration
[2] = target: HLA-A*1101 (human); assay: competition with 125I-labeled standard peptide for purified HLA, gel filtration
[3] = target: HLA-A*0301 (human); assay: as above
[4] = target: HLA-A*0301 (human)

B1: HPV16 E1 493 peptide … (peptide)
peptide: FLQGSVICFV
modifications: not checked
- relative binding ratio (IC50 of standard peptide / IC50 of test peptide) [1]: 0.23

B2: HPV18 E6 peptide … (position 24) (peptide)
peptide: SLQDIEITCV
modifications: not checked
- relative binding ratio (IC50 of standard peptide / IC50 of test peptide) [1]: 0.025

B3: HPV18 E6 peptide PLNPAEKL (position 111) (peptide)
peptide: PLNPAEKL
modifications: not checked
- relative binding ratio (IC50 of standard peptide / IC50 of test peptide) [1]: 0.0001

B4: HPV16 E1 peptide … (position 222, 9 amino acids) (peptide)
peptide: LVRPFKSNK
modifications: not checked
- relative binding ratio (IC50 of standard peptide / IC50 of test peptide) [2]: 1.8
- relative binding ratio (IC50 of standard peptide / IC50 of test peptide) [3]: 0.07

B5: HPV18 E7 peptide … (position 82) (peptide)
peptide: DLRAFQQLFL
modifications: not checked
- relative binding ratio (IC50 of standard peptide / IC50 of test peptide) [1]: 0.001

B6: HPV16 E1 … (position 239) (peptide)
peptide: AAFGLTPSI
modifications: not checked
- relative binding ratio (IC50 of standard peptide / IC50 of test peptide) [1]: 0.0012

B7: HPV16 E1 peptide … (position 421, 9 amino acids) (peptide)
peptide: SMSQWIKYR
modifications: not checked
- relative binding ratio (IC50 of standard peptide / IC50 of test peptide) [2]: 0.028
- relative binding ratio (IC50 of standard peptide / IC50 of test peptide) [3]: 0.69

B8: HPV18 E1 position 413 peptide … (peptide)
peptide: ATMCKHYRR
modifications: not checked
- binding affinity ratio (IC50 of standard peptide / IC50 of test peptide) [2]: 0.28

B9: HPV16 E1 peptide … (position 72, 9 amino acids) (peptide)
peptide: TAQEAKQHR
modifications: not checked
- relative binding ratio (IC50 of standard peptide / IC50 of test peptide) [2]: 0.0025
- relative binding ratio (IC50 of standard peptide / IC50 of test peptide) [3]: 0.0005

B10: HPV18 E6 peptide TVLELTEV (position 37) (peptide)
peptide: TVLELTEV
modifications: not checked
- relative binding ratio (IC50 of standard peptide / IC50 of test peptide) [1]: 0.001

B11: HPV18 E7 peptide CMCCKCEA (position 63) (peptide)
peptide: CMCCKCEA
modifications: not checked
- relative binding ratio (IC50 of standard peptide / IC50 of test peptide) [1]: 0.0005

B12: HPV18 E1 position 460 peptide … (peptide)
peptide: FITFLGALK
modifications: not checked
- binding affinity ratio (IC50 of standard peptide / IC50 of test peptide) [2]: 0.037
- binding affinity ratio (IC50 of standard peptide / IC50 of test peptide) [3]: 0.032

B13: HPV18 E6 peptide … (position 77) (peptide)
peptide: ELRHYSDSV
modifications: not checked
- relative binding ratio (IC50 of standard peptide / IC50 of test peptide) [1]: 0.0003

B14: HPV16 E1 peptide … (position 109, 9 amino acids) (peptide)
peptide: RLKAICIEK
modifications: not checked
- relative binding ratio (IC50 of standard peptide / IC50 of test peptide) [2]: 0.051
- relative binding ratio (IC50 of standard peptide / IC50 of test peptide) [3]: 0.084

B15: HPV18 E7 peptide … (position 63) (peptide)
peptide: CMCCKCEARI
modifications: not checked
- relative binding ratio (IC50 of standard peptide / IC50 of test peptide) [1]: 0.002

B16: HPV16 E1 … (position 353) (peptide)
peptide: CTFELSQMV
modifications: not checked
- relative binding ratio (IC50 of standard peptide / IC50 of test peptide) [1]: 0.0029

B17: HPV18 E7 peptide DLRAFQQL (position 82) (peptide)
peptide: DLRAFQQL
modifications: not checked
- relative binding ratio (IC50 of standard peptide / IC50 of test peptide) [1]: 0.0001

B18: HPV16 E1 peptide … (position 386, 9 amino acids) (peptide)
peptide: NSNASAFLK
modifications: not checked
- relative binding ratio (IC50 of standard peptide / IC50 of test peptide) [2]: 0.011
- relative binding ratio (IC50 of standard peptide / IC50 of test peptide) [3]: 0.0005
- binding affinity ratio (IC50 of the standard peptide / IC50 of the test peptide) [4]: 0.0005

B19: HPV16 E1 238 peptide … (peptide)
peptide: IAAFGLTPSI
modifications: not checked
- relative binding ratio (IC50 of standard peptide / IC50 of test peptide) [1]: 0.0002

B20: HPV16 E1 peptide … (position 544, 9 amino acids) (peptide)
peptide: LVSMDVKHR
modifications: not checked
- relative binding ratio (IC50 of standard peptide / IC50 of test peptide) [2]: 0.0089
- relative binding ratio (IC50 of standard peptide / IC50 of test peptide) [3]: 0.0005

B21: HPV18 E1 peptide … (position 500, 10 amino acids) (peptide)
peptide: FIQGAVISFV
modifications: not checked
- binding affinity ratio (IC50 of the standard peptide / IC50 of the test peptide) [1]: 0.046

B22: HPV18 E6 51 … (peptide)
peptide: DLFVVYRDSI
modifications: not checked
- binding affinity ratio (IC50 of the standard peptide / IC50 of the test peptide) [1]: 0.0001

B23: HPV16 E1 peptide … (position 454, 9 amino acids) (peptide)
peptide: MSFLTALKR
modifications: not checked
- relative binding ratio (IC50 of standard peptide / IC50 of test peptide) [2]: 0.098
- relative binding ratio (IC50 of standard peptide / IC50 of test peptide) [3]: 0.087

B24: HPV16 E1 242 peptide … (peptide)
peptide: GLTPSIADSI
modifications: not checked
- relative binding ratio (IC50 of standard peptide / IC50 of test peptide) [1]: 0.0002

B25: HPV18 E6 peptide … (position 92) (peptide)
peptide: KLTNTGLYNLL
modifications: not checked
- relative binding ratio (IC50 of standard peptide / IC50 of test peptide) [1]: 0.0043

B26: HPV18 E6 peptide … (position 84) (peptide)
peptide: SVYGDTLEKL
modifications: not checked
- relative binding ratio (IC50 of standard peptide / IC50 of test peptide) [1]: 0.0028

B27: HPV16 E1 12 peptide … (peptide)
peptide: GTGCNGWFYV
modifications: not checked
- relative binding ratio (IC50 of standard peptide / IC50 of test peptide) [1]: 0.0006

B28: HPV16 E1 peptide … (position 497, 9 amino acids) (peptide)
peptide: SVICFVNSK
modifications: not checked
- relative binding ratio (IC50 of standard peptide / IC50 of test peptide) [2]: 0.0002
- relative binding ratio (IC50 of standard peptide / IC50 of test peptide) [3]: 0.0005

B29: HPV16 E1 peptide … (position 315, 9 amino acids) (peptide)
peptide: TAAALYWYK
modifications: not checked
- relative binding ratio (IC50 of standard peptide / IC50 of test peptide) [3]: 0.78

B30: HPV18 E1 peptide … (position 11, 10 amino acids) (peptide)
peptide: GTGCNGWFYV
modifications: not checked
- binding affinity ratio (IC50 of the standard peptide / IC50 of the test peptide) [1]: 0.0006

B31: HPV16 E1 peptide … (position 484, 9 amino acids) (peptide)
peptide: SLFGMSLMK
modifications: not checked
- relative binding ratio (IC50 of standard peptide / IC50 of test peptide) [2]: 7.1
- relative binding ratio (IC50 of standard peptide / IC50 of test peptide) [3]: 0.72

B32: HPV18 E6 88 … (peptide)
peptide: DTLEKLTNT
modifications: not checked
- binding affinity ratio (IC50 of the standard peptide / IC50 of the test peptide) [1]: 0.0001

B33: HPV18 E6 20 … (peptide)
peptide: ELNTSLQDI
modifications: not checked
- binding affinity ratio (IC50 of the standard peptide / IC50 of the test peptide) [1]: 0.0001

B34: HPV16 E1 477 peptide … (peptide)
peptide: GAANTGKSL
modifications: not checked
- relative binding ratio (IC50 of standard peptide / IC50 of test peptide) [1]: 0.0003

B35: HPV18 E7 peptide … (position 40) (peptide)
peptide: EIDGVNHQHL
modifications: not checked
- relative binding ratio (IC50 of standard peptide / IC50 of test peptide) [1]: 0.0001

B36: HPV18 E1 position 412 peptide … (peptide)
peptide: CATMCKHYR
modifications: not checked
- binding affinity ratio (IC50 of standard peptide / IC50 of test peptide) [2]: 0.011
- binding affinity ratio (IC50 of standard peptide / IC50 of test peptide) [3]: 0.0012

B37: HPV18 E6 peptide … (position 22) (peptide)
peptide: NTSLQDIEIT
modifications: not checked
- relative binding ratio (IC50 of standard peptide / IC50 of test peptide) [1]: 0.0001

B38: HPV18 E6 peptide … (position 92) (peptide)
peptide: KLTNTGLYNL
modifications: not checked
- relative binding ratio (IC50 of standard peptide / IC50 of test peptide) [1]: 0.0048

B39: HPV16 E1 peptide … (position 305, 9 amino acids) (peptide)
peptide: MMIEPPKLR
modifications: not checked
- relative binding ratio (IC50 of standard peptide / IC50 of test peptide) [2]: 0.0086
- relative binding ratio (IC50 of standard peptide / IC50 of test peptide) [3]: 0.001

B40: HPV18 E6 peptide … (position 149) (peptide)
peptide: RLQRRRETQV
modifications: not checked
- relative binding ratio (IC50 of standard peptide / IC50 of test peptide) [1]: 0.0001

B41: HPV18 E1 peptide … (position 497, 10 amino acids) (peptide)
peptide: FIHFIQGAVI
modifications: not checked
- binding affinity ratio (IC50 of the standard peptide / IC50 of the test peptide) [1]: 0.0057

B42: HPV18 E1 position 284 peptide … (peptide)
peptide: ALLRYKCGK
modifications: not checked
- binding affinity ratio (IC50 of standard peptide / IC50 of test peptide) [2]: 0.14
- binding affinity ratio (IC50 of standard peptide / IC50 of test peptide) [3]: 0.09
